From patent publication US11673947B2, “Target tissue-specific antigen-binding molecule” (Chugai Seiyaku Kabushiki Kaisha, priority 2012, dated 2023)

Legend:
[1] = target: T1, hIL-6R (Homo sapiens, UniProt P08887); assay: Phage ELISA, binding to hIL-6R in the presence or absence of SC; conditions: in the presence of SC
T1 sequence (P08887 20-355 limits assumed): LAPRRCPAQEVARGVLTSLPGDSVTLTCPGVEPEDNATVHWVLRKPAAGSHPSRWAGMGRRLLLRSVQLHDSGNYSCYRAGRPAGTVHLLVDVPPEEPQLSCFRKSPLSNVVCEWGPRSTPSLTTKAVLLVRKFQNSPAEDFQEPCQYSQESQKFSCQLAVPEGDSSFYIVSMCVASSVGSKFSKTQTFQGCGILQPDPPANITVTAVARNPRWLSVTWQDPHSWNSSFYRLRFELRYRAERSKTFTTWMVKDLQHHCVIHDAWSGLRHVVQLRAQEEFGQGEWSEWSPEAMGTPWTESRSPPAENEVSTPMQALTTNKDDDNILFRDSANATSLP
Protocol: Culture supernatants containing phages were collected according to a conventional method (Methods Mol. Biol. (2002) 178, 133-145) from single colonies of E. coli obtained as described in (14-2). Phages purified by the method described in (2-4) were subjected to ELISA by the following procedure. A StreptaWell 96 microtiter plate (Roche) was coated overnight with 100 μl of TBS containing biotin-labeled hIL-6R. After biotin-labeled hIL-6R was removed by washing each well of the plate with TBST, the wells were blocked with 250 μl of 2% skim milk/TBS for one hour or more. 2% skim milk/TBS was removed, and then the prepared, purified phages were added to each well. The plate was allowed to stand at room temperature for one hour to allow binding of antibody-displaying phages to biotin-labeled hIL-6R in each well in the presence or absence of SC. After washing with TBST or SC/TBST, an HRP-conjugated anti-M13 antibody (Amersham Pharmacia Biotech) diluted with TBS or SC/TBS was added to each well. The plate was incubated for one hour. Following wash with TBST or SC/TBST, the TMB single solution (ZYMED) was added to each well. The chromogenic reaction in the solution of each well was terminated by adding sulfuric acid. Then, the developed color was assessed by measuring absorbance at 450 nm.

[2] = tested on: BaF/hIL6R (Ba/F3 cells expressing human IL-6 receptor); assay: ADCC (chrome release) with human PBMC as effector cells against BaF/hIL6R cells; format: cell-based
Protocol: Variant 6RNMSC1-2_F02 with increased effector activity (the heavy chain and light chain sequences are shown in SEQ ID NOs: 94 and 91, respectively) was used. At various concentrations of 6RNMSC1-2_F02, ADCC activity against hIL-6R-expressing cells was assayed in the presence or absence of kynurenine according to the method described in Reference Example 1.
Furthermore, there is a difference in the kynurenine concentration between normal and tumor tissues, and thus it is preferable that the ADCC activity of an antibody is exerted against antigen-expressing tumor cells only at the kynurenine concentration in tumor tissues, while at the normal-tissue kynurenine concentration, the ADCC activity is impaired or not exerted. Then, 6RNMSC1-2_F02 was assessed for ADCC activity against hIL-6R-expressing cells at various kynurenine concentrations according to the method described in Reference Example 2. […] Furthermore, in contrast to the approximately 10% ADCC activity at 4 to 6 μM which is considered to be the kynurenine concentration in normal tissues, the ADCC activity at 30 to 40 μM which is considered to be the kynurenine concentration in tumor tissues was about 25%.
Antibodies that bind antigens in a kynurenine-dependent manner were assessed for their ADCC activity against antigen-expressing cells at different antibody concentrations according to the method described below. Human peripheral blood mononuclear cells (hereinafter referred to as human PBMC) were used as effector cells to measure the ADCC activity of each test antibody as follows.
Syringes pre-filled with 200 μl of 1000 units/ml heparin solution (Novo-Heparin 5000 units for Injection; Novo Nordisk) were used to collect 50 ml of peripheral blood from healthy volunteers (male adult) affiliated with Chugai Pharmaceutical Co. Ltd. The peripheral blood was diluted two-fold with PBS(−), and divided into four equal parts, each of which was transferred into a pre-centrifuged leukocyte separation tube Leucosep (Greiner Bio-One) containing 15 ml of Ficoll-Paque PLUS. The separation tubes containing an aliquot of the peripheral blood were centrifuged at 2150 rpm for ten minutes at room temperature. Then, the resulting mononuclear cell fractions were collected from the tubes. The cells in each fraction were washed once with RPMI-1640 (nacalai tesque) supplemented with 10% FBS (hereinafter referred to as 10% FBS/RPMI), and then suspended at a cell density of 1×10^7 cells/ml in 10% FBS/RPMI. The cell suspensions were used as the human PBMC solution in subsequent experiments. […]
ADCC activity was assessed based on specific chrome release rate determined by chrome release assay. […]

B1: 6RNMSC1-2_F02: antibody that binds to hIL-6R in the presence of kynurenine; SEQ ID NOs: 86 and 87 (antibody, listed as Homo sapiens, V domains shown)
VH: QVQLVQSGAEVKKPGSSVKVSCKASGGTFSSYAISWVRQAPGQGLEWMGGIIPIFGTANYAQKFQGRVTITADESTSTAYMELSSLRSEDTAVYYCARDAPVVARPRGAFDIWGQGTMVTVSS
VL: DIVMTQTPLSSPVTLGQPASISCRSSQSLVHSDGNTYLSWLQQRPGQPPRLLIHEISNRFSGVPDRFSGSGAGTNFTLKISRVEAEDVGVYYCMQATQFPRTFGQGTKVEIK
binding activity to hIL-6R in the presence of a small molecule cocktail (phage ELISA) [1]: have binding activity | ADCC activity ([2]; at 4 to 6 μM kynurenine (considered the concentration in normal tissues)): approximately 10% | ADCC activity ([2]; at 30 to 40 μM kynurenine (considered the concentration in tumor tissues)): about 25% | ADCC activity against hIL-6R-expressing cells ([2]; in the presence of kynurenine, various antibody concentrations, variant with increased effector activity): induced by 6RNMSC1-2_F02 in an antibody concentration-dependent manner | ADCC activity against hIL-6R-expressing cells at various kynurenine concentrations ([2]; various kynurenine concentrations): kynurenine concentration-dependent manner
